Consider 1 protein from paper PMC4335309 (Journal of molecular biology, 2009).

This data set deals with the molecule itself. Nature of the data set: crystal structure.

B1: MukB-D (MukB construct 566–863: hinge domain with part of the coiled coil domain) (domain or fragment, Escherichia coli, UniProt P22523 566-863, looked up)
chain: IASLSDSVSNAREERMALRQEQEQLQSRIQSLMQRAPVWLAAQNSLNQLSEQCGEEFTSSQDVTEYLQQLLEREREAIVERDEVGARKNAVDEEIERLSQPGGSEDQRLNALAERFGGVLLSEIYDDVSLEDAPYFSALYGPSRHAIVVPDLSQVTEHLEGLTDCPEDLYLIEGDPQSFDDSVFSVDELEKAVVVKIADRQWRYSRFPEVPLFGRAARESRIESLHAEREVLSERFATLSFDVQKTQRLHQAFSRFIGSHLAVAFESDPEAEIRQLNSRRVELERALSNHENDNQQQR
For B1, the binding result is on record as “binds”.
